PMC9352680, “A comprehensive thermodynamic model for RNA binding by the Saccharomyces cerevisiae Pumilio protein PUF4”

T1: PUF4 RNA-binding domain (Saccharomyces cerevisiae, UniProt P25339 537-888)
T1 sequence: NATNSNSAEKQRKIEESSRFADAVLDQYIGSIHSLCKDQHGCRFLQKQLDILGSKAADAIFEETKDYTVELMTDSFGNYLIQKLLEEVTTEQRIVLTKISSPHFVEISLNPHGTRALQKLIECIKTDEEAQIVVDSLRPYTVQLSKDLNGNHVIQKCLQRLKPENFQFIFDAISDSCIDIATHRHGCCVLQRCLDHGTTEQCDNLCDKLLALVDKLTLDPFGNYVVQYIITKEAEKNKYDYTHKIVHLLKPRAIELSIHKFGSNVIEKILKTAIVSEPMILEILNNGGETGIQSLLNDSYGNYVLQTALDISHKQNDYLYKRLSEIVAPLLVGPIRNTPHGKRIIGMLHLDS


Each binder was assayed against T1, PUF4 RNA-binding domain (assay: Mg; RNA-MaP; 20 mM Na-HEPES pH 7.4, 30 mM KOAc, 0.75 mM MgCl2, 0.1% Tween-20, 5% glycerol, 0.1 mg/mL BSA, 2 mM DTT; 25 C; 0.0125-409.6 nM protein). Settings: tags: N-His6-TEV cleaved; C-SNAP kept, Cy3B-labelled; label: tethered on chip by stalled RNA polymerase.
Binder UCUCUUUGUAUUUUCUUCUCUU (ssRNA) [Ic_S1_P5E.1_K5.1_C5.1_H5.1_A5.1_[A7T]_F5.1_[T9C]_[A10T]_T5.1] has a Kd of 0.0348 µM. UCUCUUUGUACUUACGUCUCUU (ssRNA) [Ic_S1_P5E.1_K5.1_C5.1_H5.1_A5.1_[T5C]_[A7T]_F5.1_[T8A]_[T9C]_[A10G]_T5.1] was tested, and the Kd was 0.504 µM. Binder UCUCUUUGUAUCUUAUUCUCUU (ssRNA) [Ic_S1_P5E.1_K5.1_C5.1_H5.1_A5.1_[T6C]_[A7T]_F5.1_[T9A]_[A10T]_T5.1] has a Kd of 0.00328 µM. UCUCUUUGUACCUGCUUCUCUU (ssRNA) [Ic_S1_P5E.1_K5.1_C5.1_H5.1_A5.1_[T5C]_[T6C]_[A7T]_F5.1_[T8G]_[T9C]_[A10T]_T5.1] showed a Kd of 0.378 µM. With UCUCUUUGUAUCCCGCUCUCUU (ssRNA) [Ic_S1_P5E.1_K5.1_C5.1_H5.1_A5.1_[T6C]_[A7C]_F5.1_[T8C]_[T9G]_[A10C]_T5.1] the Kd was 1.69 µM. With UCUCUUUUUUUAUAUCUCUU (ssRNA) [Ib_S1_P3E.1_K3.1_C3.1_H3.1_[G2T]_[A4T]_A3.1_F3.1_T3.1] the Kd was greater than 2.3 µM. Binder UCUCUUUGUAUCCCUAUCUCUU (ssRNA) [Ic_S1_P5E.1_K5.1_C5.1_H5.1_A5.1_[T6C]_[A7C]_F5.1_[T8C]_T5.1] has a Kd of 0.0133 µM. With UCUCUUUGUACGAAUGUCUCUU (ssRNA) [Ic_S1_P5E.1_K5.1_C5.1_H5.1_A5.1_[T5C]_[T6G]_F5.1_[T8A]_[A10G]_T5.1] the Kd was 0.819 µM. With UCUCUUUGUAUCGUUGUCUCUU (ssRNA) [Ic_S1_P5E.1_K5.1_C5.1_H5.1_A5.1_[T6C]_[A7G]_F5.1_[A10G]_T5.1] the Kd was 0.315 µM. With UCUCUUUGUAAGUUAGUCUCUU (ssRNA) [Ic_S1_P5E.1_K5.1_C5.1_H5.1_A5.1_[T5A]_[T6G]_[A7T]_F5.1_[T9A]_[A10G]_T5.1] the Kd was 0.0172 µM. Binder UCUCUUUGUAGUUUAUUCUCUU (ssRNA) [Ic_S1_P5E.1_K5.1_C5.1_H5.1_A5.1_[T5G]_[A7T]_F5.1_[T9A]_[A10T]_T5.1] has a Kd of 0.0152 µM. In the case of UCUCUUUGUAGCGUAAUCUCUU (ssRNA) [Ic_S1_P5E.1_K5.1_C5.1_H5.1_A5.1_[T5G]_[T6C]_[A7G]_F5.1_[T9A]_T5.1], the Kd is reported as 0.3 µM. With UCUCUUUGACUAUAUCUCUU (ssRNA) [Ib_S1_P3E.1_K3.1_C3.1_H3.1_[T3A]_[A4C]_A3.1_F3.1_T3.1] the Kd was greater than 2.3 µM. UCUCUUUGUACCGUCCUCUCUU (ssRNA) [Ic_S1_P5E.1_K5.1_C5.1_H5.1_A5.1_[T5C]_[T6C]_[A7G]_F5.1_[T9C]_[A10C]_T5.1] gave a Kd of 1.54 µM. UCUCUUUGUACAUAGUUCUCUU (ssRNA) [Ic_S1_P5E.1_K5.1_C5.1_H5.1_A5.1_[T5C]_[T6A]_[A7T]_F5.1_[T8A]_[T9G]_[A10T]_T5.1] gave a Kd of 0.00418 µM. Binder UCUCUUUGUAACAUUCUCUCUU (ssRNA) [Ic_S1_P5E.1_K5.1_C5.1_H5.1_A5.1_[T5A]_[T6C]_F5.1_[A10C]_T5.1] has a Kd of 0.015 µM. With UCUCUUUGUAUCCAGCUCUCUU (ssRNA) [Ic_S1_P5E.1_K5.1_C5.1_H5.1_A5.1_[T6C]_[A7C]_F5.1_[T8A]_[T9G]_[A10C]_T5.1] the Kd was 1.3 µM. Binder UCUCUUUGUAGCUUACUCUCUU (ssRNA) [Ic_S1_P5E.1_K5.1_C5.1_H5.1_A5.1_[T5G]_[T6C]_[A7T]_F5.1_[T9A]_[A10C]_T5.1] has a Kd of 0.0192 µM. With UCUCUUUGUAAAUAUCUCUCUU (ssRNA) [Ic_S1_P5E.1_K5.1_C5.1_H5.1_A5.1_[T5A]_[T6A]_[A7T]_F5.1_[T8A]_[A10C]_T5.1] the Kd was 0.0271 µM. UCUCUUUGUACUCUACUCUCUU (ssRNA) [Ic_S1_P5E.1_K5.1_C5.1_H5.1_A5.1_[T5C]_[A7C]_F5.1_[T9A]_[A10C]_T5.1] showed a Kd of 0.00481 µM. UCUCUUUGUAAUCCGCUCUCUU (ssRNA) [Ic_S1_P5E.1_K5.1_C5.1_H5.1_A5.1_[T5A]_[A7C]_F5.1_[T8C]_[T9G]_[A10C]_T5.1] showed a Kd of 1.66 µM. UCUCUUUGUACCCUUUUCUCUU (ssRNA) [Ic_S1_P5E.1_K5.1_C5.1_H5.1_A5.1_[T5C]_[T6C]_[A7C]_F5.1_[A10T]_T5.1] gave a Kd of 0.0359 µM. With UCUCUUUGUAUCGCCAUCUCUU (ssRNA) [Ic_S1_P5E.1_K5.1_C5.1_H5.1_A5.1_[T6C]_[A7G]_F5.1_[T8C]_[T9C]_T5.1] the Kd was 0.919 µM. Binder UCUCUUUGUAUAUCAGUCUCUU (ssRNA) [Ic_S1_P5E.1_K5.1_C5.1_H5.1_A5.1_[T6A]_[A7T]_F5.1_[T8C]_[T9A]_[A10G]_T5.1] has a Kd of 0.00458 µM. UCUCUUUGUAGCUGCCUCUCUU (ssRNA) [Ic_S1_P5E.1_K5.1_C5.1_H5.1_A5.1_[T5G]_[T6C]_[A7T]_F5.1_[T8G]_[T9C]_[A10C]_T5.1] was tested, and the Kd was greater than 2.3 µM. UCUCUUUGUAGUACCUUCUCUU (ssRNA) [Ic_S1_P5E.1_K5.1_C5.1_H5.1_A5.1_[T5G]_F5.1_[T8C]_[T9C]_[A10T]_T5.1] showed a Kd greater than 2.3 µM. In the case of UCUCUUUGUAUGUACCUCUCUU (ssRNA) [Ic_S1_P5E.1_K5.1_C5.1_H5.1_A5.1_[T6G]_[A7T]_F5.1_[T8A]_[T9C]_[A10C]_T5.1], the Kd is reported as 0.0938 µM. UCUCUUUGUAUUCGUUUCUCUU (ssRNA) [Ic_S1_P5E.1_K5.1_C5.1_H5.1_A5.1_[A7C]_F5.1_[T8G]_[A10T]_T5.1] showed a Kd of 0.378 µM. Binder UCUCUUUGUACGUUCAUCUCUU (ssRNA) [Ic_S1_P5E.1_K5.1_C5.1_H5.1_A5.1_[T5C]_[T6G]_[A7T]_F5.1_[T9C]_T5.1] has a Kd of 0.0518 µM. Work on UCUCUUUGUACCUAGCUCUCUU (ssRNA) [Ic_S1_P5E.1_K5.1_C5.1_H5.1_A5.1_[T5C]_[T6C]_[A7T]_F5.1_[T8A]_[T9G]_[A10C]_T5.1] yielded a Kd of 0.114 µM. For UCUCUUUGUAUGUUUCUCUCUU (ssRNA) [Ic_S1_P5E.1_K5.1_C5.1_H5.1_A5.1_[T6G]_[A7T]_F5.1_[A10C]_T5.1], the Kd was 0.047 µM. With UCUCUUUGUACUCAUUUCUCUU (ssRNA) [Ic_S1_P5E.1_K5.1_C5.1_H5.1_A5.1_[T5C]_[A7C]_F5.1_[T8A]_[A10T]_T5.1] the Kd was 0.119 µM.
